# From US20150344570A1 (published 2015)
# T1: FcγRIIa H (human, UniProt P12318 34-217)
# T1 construct: extracellular domain; also called FcgRIIa H; 2aH; not shown: His tag at the C terminus
# T1 sequence (looked up): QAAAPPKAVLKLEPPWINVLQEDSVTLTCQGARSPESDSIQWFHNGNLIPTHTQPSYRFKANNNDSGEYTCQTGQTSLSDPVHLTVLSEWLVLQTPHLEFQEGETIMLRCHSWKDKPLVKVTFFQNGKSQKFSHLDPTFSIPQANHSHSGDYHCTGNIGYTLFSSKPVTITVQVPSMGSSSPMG
# T2: FcγRIIb (human, UniProt P31994 43-217)
# T2 construct: extracellular domain; also called FcgRIIb; CD32B
# T2 sequence (looked up): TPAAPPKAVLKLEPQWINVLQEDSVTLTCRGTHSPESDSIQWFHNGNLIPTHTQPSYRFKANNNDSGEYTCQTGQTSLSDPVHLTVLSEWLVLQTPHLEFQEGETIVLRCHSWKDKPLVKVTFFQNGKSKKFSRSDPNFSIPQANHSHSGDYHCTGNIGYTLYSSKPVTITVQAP
# T3: FcγRIIb (human, UniProt P31994 43-217)
# T3 construct: extracellular domain; also called FcgRIIb; 2b; not shown: His tag at the C terminus
# T3 sequence (looked up): T2 sequence (looked up)
# B1: GpH7-A5/GpH7-B3 variant I336_15Y/GpL16-k0 (antibody, human IgG1, kappa)
# heavy 1: not shown
# heavy 2: not shown
# light: DIVMTQSPLSLPVTPGEPASISCQASESLVHSNRNTYLHWYLQKPGQSPQLLIYKVSNRFSGVPDRFSGSGSGTDFTLKISRVEAEDVGVYYCSQNTHVPPTFGQGTKVEIERTVAAPSVFIFPPSDEQLKSGTASVVCLLNNFYPREAKVQWKVDNALQSGNSQESVTEQDSKDSTYSLSSTLTLSKADYEKHKVYACEVTHQGLSSPVTKSFNRGEC
# notes: He Ab; mutation in the GpH7-B3 chain only; also called He Ab
# B2: GpH7-A5/GpH7-B3 variant P329_12R/GpL16-k0 (antibody, human IgG1, kappa)
# heavy 1: not shown
# heavy 2: not shown
# light: B1 light
# notes: as for B1
# B3: GpH7-A5/GpH7-B3 variant P329_04F/GpL16-k0 (antibody, human IgG1, kappa)
# heavy 1: not shown
# heavy 2: not shown
# light: B1 light
# notes: as for B1
# B4: GpH7-A5/GpH7-B3 variant P329_02A/GpL16-k0 (antibody, human IgG1, kappa)
# heavy 1: not shown
# heavy 2: not shown
# light: B1 light
# notes: as for B1
# B5: GpH7-A5/GpH7-B3 variant P329_16H/GpL16-k0 (antibody, human IgG1, kappa)
# heavy 1: not shown
# heavy 2: not shown
# light: B1 light
# notes: as for B1
# B6: GpH7-A5/GpH7-B3 variant P329_03V/GpL16-k0 (antibody, human IgG1, kappa)
# heavy 1: not shown
# heavy 2: not shown
# light: B1 light
# notes: as for B1
# B7: GpH7-A5/GpH7-B3 variant L328_18N/GpL16-k0 (antibody, human IgG1, kappa)
# heavy 1: not shown
# heavy 2: not shown
# light: B1 light
# notes: as for B1
# B8: GpH7-A5/GpH7-B3 variant P329_10E/GpL16-k0 (antibody, human IgG1, kappa)
# heavy 1: not shown
# heavy 2: not shown
# light: B1 light
# notes: as for B1
# B9: GpH7-A5/GpH7-B3 variant P329_14T/GpL16-k0 (antibody, human IgG1, kappa)
# heavy 1: not shown
# heavy 2: not shown
# light: B1 light
# notes: as for B1
# B10: GpH7-A5/GpH7-B3 variant P331_01G/GpL16-k0 (antibody, human IgG1, kappa)
# heavy 1: not shown
# heavy 2: not shown
# light: B1 light
# notes: as for B1
# B11: GpH7-A5/GpH7-B3 variant I336_19Q/GpL16-k0 (antibody, human IgG1, kappa)
# heavy 1: not shown
# heavy 2: not shown
# light: B1 light
# notes: as for B1
# B12: GpH7-A5/GpH7-B3 variant P329_11K/GpL16-k0 (antibody, human IgG1, kappa)
# heavy 1: not shown
# heavy 2: not shown
# light: B1 light
# notes: as for B1
# B13: GpH7-A5/GpH7-B3 variant P329_08L/GpL16-k0 (antibody, human IgG1, kappa)
# heavy 1: not shown
# heavy 2: not shown
# light: B1 light
# notes: as for B1
# B14: GpH7-A5/GpH7-B3 variant P329_18N/GpL16-k0 (antibody, human IgG1, kappa)
# heavy 1: not shown
# heavy 2: not shown
# light: B1 light
# notes: as for B1
# B15: GpH7-A5/GpH7-B3 variant P329_07I/GpL16-k0 (antibody, human IgG1, kappa)
# heavy 1: not shown
# heavy 2: not shown
# light: B1 light
# notes: as for B1
# B16: GpH7-A5/GpH7-B3 variant T335_12R/GpL16-k0 (antibody, human IgG1, kappa)
# heavy 1: not shown
# heavy 2: not shown
# light: B1 light
# notes: as for B1
# B17: GpH7-A5/GpH7-B3 variant L328_01G/GpL16-k0 (antibody, human IgG1, kappa)
# heavy 1: not shown
# heavy 2: not shown
# light: B1 light
# notes: as for B1
# B18: GpH7-A5/GpH7-B3 variant P329_06M/GpL16-k0 (antibody, human IgG1, kappa)
# heavy 1: not shown
# heavy 2: not shown
# light: B1 light
# notes: as for B1
# B19: GpH7-A5/GpH7-B3 variant P329_20W/GpL16-k0 (antibody, human IgG1, kappa)
# heavy 1: not shown
# heavy 2: not shown
# light: B1 light
# notes: as for B1
# B20: GpH7-A5/GpH7-B3 variant L328_05P/GpL16-k0 (antibody, human IgG1, kappa)
# heavy 1: not shown
# heavy 2: not shown
# light: B1 light
# notes: as for B1
# B21: GpH7-A5/GpH7-B3 variant P329_19Q/GpL16-k0 (antibody, human IgG1, kappa)
# heavy 1: not shown
# heavy 2: not shown
# light: B1 light
# notes: as for B1
# B22: GpH7-A5/GpH7-B3 variant P329_15Y/GpL16-k0 (antibody, human IgG1, kappa)
# heavy 1: not shown
# heavy 2: not shown
# light: B1 light
# notes: as for B1
# B23: GpH7-A5/GpH7-B3 variant T335_11K/GpL16-k0 (antibody, human IgG1, kappa)
# heavy 1: not shown
# heavy 2: not shown
# light: B1 light
# notes: as for B1
# B24: GpH7-A5/GpH7-B3 variant P329_09D/GpL16-k0 (antibody, human IgG1, kappa)
# heavy 1: not shown
# heavy 2: not shown
# light: B1 light
# notes: as for B1
# B25: GpH7-A5/GpH7-B3 variant I336_20W/GpL16-k0 (antibody, human IgG1, kappa)
# heavy 1: not shown
# heavy 2: not shown
# light: B1 light
# notes: as for B1
# B26: GpH7-A5/GpH7-B3 variant P329_13S/GpL16-k0 (antibody, human IgG1, kappa)
# heavy 1: not shown
# heavy 2: not shown
# light: B1 light
# notes: as for B1
# B27: GpH7-A5/GpH7-B3 variant P329_01G/GpL16-k0 (antibody, human IgG1, kappa)
# heavy 1: not shown
# heavy 2: not shown
# light: B1 light
# notes: He Ab: mutation in the GpH7-B3 H chain only
# B28: GpH7-A5/GpH7-B3 variant A327_19Q/GpL16-k0 (antibody, human IgG1, kappa)
# heavy 1: not shown
# heavy 2: not shown
# light: B1 light
# notes: as for B27
# B29: GpH7-A5/GpH7-B3 variant L328_11K/GpL16-k0 (antibody, human IgG1, kappa)
# heavy 1: not shown
# heavy 2: not shown
# light: B1 light
# notes: as for B27
# B30: GpH7-A5/GpH7-B3 variant A327_06M/GpL16-k0 (antibody, human IgG1, kappa)
# heavy 1: not shown
# heavy 2: not shown
# light: B1 light
# notes: as for B27
# B31: GpH7-A5/GpH7-B3 variant A330_07I/GpL16-k0 (antibody, human IgG1, kappa)
# heavy 1: not shown
# heavy 2: not shown
# light: B1 light
# notes: as for B27
# B32: GpH7-A5/GpH7-B3 variant A327_04F/GpL16-k0 (antibody, human IgG1, kappa)
# heavy 1: not shown
# heavy 2: not shown
# light: B1 light
# notes: as for B27
# B33: GpH7-A5/GpH7-B3 variant L328_12R/GpL16-k0 (antibody, human IgG1, kappa)
# heavy 1: not shown
# heavy 2: not shown
# light: B1 light
# notes: as for B27
# B34: GpH7-A5/GpH7-B3 variant A327_12R/GpL16-k0 (antibody, human IgG1, kappa)
# heavy 1: not shown
# heavy 2: not shown
# light: B1 light
# notes: as for B27
# B35: GpH7-A5/GpH7-B3 variant A330_03V/GpL16-k0 (antibody, human IgG1, kappa)
# heavy 1: not shown
# heavy 2: not shown
# light: B1 light
# notes: as for B27
# Molecular target: T4, FcγRIa (human, UniProt P12314 16-292)
# T4 construct: extracellular domain; also called FcgRI; CD64
# T4 sequence (P12314 16-292): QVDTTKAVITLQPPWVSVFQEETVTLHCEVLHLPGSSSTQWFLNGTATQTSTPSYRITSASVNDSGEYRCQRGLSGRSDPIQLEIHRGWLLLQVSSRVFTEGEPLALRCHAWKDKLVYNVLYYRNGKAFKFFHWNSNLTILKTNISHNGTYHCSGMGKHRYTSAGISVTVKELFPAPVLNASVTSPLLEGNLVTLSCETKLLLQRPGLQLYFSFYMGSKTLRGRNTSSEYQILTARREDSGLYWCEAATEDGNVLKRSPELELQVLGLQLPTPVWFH
# Assay: ratio of He/Con_1a to He/Con_2b (FcγRIa over FcγRIIb), SPR
# Procedure: (§1) The heterodimerized antibodies He Abs in which one of the H chains was introduced with an alteration were assayed for their binding activities to each activating FcγR and inhibitory FcγR according to the method described in Example 4. […] The activating FcγRs in FIGS. 26, 27, 28, and 29 are FcγRIa, FcγRIIa (R), FcγRIIa (H), and FcγRIIIa, respectively.
# (§2) Analysis of interaction between objective antibody and the FcγR was carried out using Biacore T100 (GE Healthcare). HBS-EP+ (GE Healthcare) was used as the running buffer, and the measurement temperature was set to 25° C. Chips produced by immobilizing the antigen peptide by the amine coupling method to a Series S Sencor Chip CM5 (GE Healthcare), or alternatively, chips produced by allowing preliminarily biotinylated antigen peptides to interact with and immobilize onto a Series S Sensor Chip SA (certified) (GE Healthcare) were used. Antibodies of interest were captured onto an antigen peptide-immobilized chip, and allowed to interact to each FcγR diluted with running buffer. To regenerate and repeatedly use the chip, the antibodies captured on the chip were washed off by reacting 10 mM glycine-HCl, pH 1.5.
row,He_1a/2b (Ia/IIb),Binder
1,1.51,B1
2,4.22,B2
3,2.88,B3
4,2.52,B4
5,2.45,B5
6,2.53,B6
7,1.22,B7
8,1.5,B8
9,2.37,B9
10,1.88,B10
11,1.78,B11
12,4.17,B12
13,2.95,B13
14,2.29,B14
15,2.72,B15
16,1.23,B16
17,1.21,B17
18,2.94,B18
19,2.15,B19
20,1.42,B20
21,2.31,B21
22,2.09,B22
23,1.22,B23
24,1.45,B24
25,4.28,B25
26,2.27,B26

# Molecular target: T1, FcγRIIa H
# Assay: SPR (Biacore); He/Con_2aH divided by He/Con_2b (FcγRIIa H versus FcγRIIb)
# Procedure: as §1, §2
row,He_2aH/2b (IIaH/IIb) [ratio],Binder
1,1.32,B27
2,1.24,B28
3,4.27,B29
4,1.27,B30
5,1.3,B31
6,1.32,B32
7,4.6,B33
8,1.26,B34
9,1.52,B35

# Molecular target: T4, FcγRIa
# Assay: SPR (Biacore), captured antibody, soluble FcγR; relative to GpH7-A5/GpH7-B3/GpL16-k0 = 100
# Procedure: as §1, §2
row,He/Con_1a,Binder
1,103 % of control,B1
2,74.3 % of control,B2
3,92.7 % of control,B3
4,102 % of control,B4
5,95.6 % of control,B5
6,97.4 % of control,B6
7,98.7 % of control,B7
8,78.8 % of control,B8
9,89.7 % of control,B9
10,85.3 % of control,B10
11,104 % of control,B11
12,70.4 % of control,B12
13,85.7 % of control,B13
14,92.4 % of control,B14
15,94.1 % of control,B15
16,113 % of control,B16
17,97.2 % of control,B17
18,85.3 % of control,B18
19,96.9 % of control,B19
20,92.2 % of control,B20
21,70.7 % of control,B21
22,95.6 % of control,B22
23,111 % of control,B23
24,77.6 % of control,B24
25,86.7 % of control,B25
26,93.3 % of control,B26

# Molecular target: T2, FcγRIIb
# Assay: as above
# Procedure: as §1, §2
row,He/Con_2b,Binder
1,68.2 % of control,B1
2,17.6 % of control,B2
3,32.2 % of control,B3
4,40.5 % of control,B4
5,39.1 % of control,B5
6,38.5 % of control,B6
7,80.8 % of control,B7
8,52.7 % of control,B8
9,37.9 % of control,B9
10,45.4 % of control,B10
11,58.2 % of control,B11
12,16.9 % of control,B12
13,29.1 % of control,B13
14,40.4 % of control,B14
15,34.6 % of control,B15
16,91.9 % of control,B16
17,80.2 % of control,B17
18,29.1 % of control,B18
19,45.1 % of control,B19
20,65.1 % of control,B20
21,30.7 % of control,B21
22,45.7 % of control,B22
23,91 % of control,B23
24,53.5 % of control,B24
25,20.3 % of control,B25
26,41 % of control,B26

# Molecular target: T1, FcγRIIa H
# Assay: SPR (Biacore), FcγR passed over captured antibody; binding amount as % of control GpH7-A5/GpH7-B3/GpL16-k0 (=100)
# Procedure: as §1, §2
row,He/Con_2aH,Binder
1,"54.9 relative, control = 100",B27
2,"67.3 relative, control = 100",B28
3,"32.2 relative, control = 100",B29
4,"75.5 relative, control = 100",B30
5,"87.3 relative, control = 100",B31
6,"84.4 relative, control = 100",B32
7,"42.5 relative, control = 100",B33
8,"11.3 relative, control = 100",B34
9,"79.7 relative, control = 100",B35

# Molecular target: T3, FcγRIIb
# Assay: as above
# Procedure: as §1, §2
row,He/Con_2b,Binder
1,"41.7 relative, control = 100",B27
2,"54.2 relative, control = 100",B28
3,"59.5 relative, control = 100",B30
4,"67.1 relative, control = 100",B31
5,"63.7 relative, control = 100",B32
6,"52.4 relative, control = 100",B35
